Biological target: wasp_human WAS (UniProt P42768)
Sequence (P42768 whole entry): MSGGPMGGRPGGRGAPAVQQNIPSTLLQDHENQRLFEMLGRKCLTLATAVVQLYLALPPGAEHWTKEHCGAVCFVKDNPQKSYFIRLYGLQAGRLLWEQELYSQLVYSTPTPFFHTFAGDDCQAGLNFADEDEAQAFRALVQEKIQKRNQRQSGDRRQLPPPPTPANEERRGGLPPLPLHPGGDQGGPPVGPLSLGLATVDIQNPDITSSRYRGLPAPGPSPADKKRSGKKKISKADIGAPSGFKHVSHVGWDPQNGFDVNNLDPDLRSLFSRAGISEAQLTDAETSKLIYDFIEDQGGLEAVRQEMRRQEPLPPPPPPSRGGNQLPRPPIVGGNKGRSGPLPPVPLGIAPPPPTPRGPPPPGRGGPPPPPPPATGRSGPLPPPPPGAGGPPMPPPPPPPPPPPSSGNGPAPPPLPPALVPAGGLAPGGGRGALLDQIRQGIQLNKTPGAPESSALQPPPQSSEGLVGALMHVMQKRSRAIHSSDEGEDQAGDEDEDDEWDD

Chain of Cell division control protein 42 homolog (Homo sapiens), P60953 Y40C (P60953 whole entry Y40C): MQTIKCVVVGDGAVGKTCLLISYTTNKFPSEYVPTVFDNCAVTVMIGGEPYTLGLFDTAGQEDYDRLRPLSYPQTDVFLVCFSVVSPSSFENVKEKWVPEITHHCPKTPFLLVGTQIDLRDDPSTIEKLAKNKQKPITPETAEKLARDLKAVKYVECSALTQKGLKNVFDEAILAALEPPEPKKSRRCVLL

In the case of “Cell division control protein 42 homolog (Homo sapiens), P60953 Y40C”, the “effect of a mutation on the interaction” value is reported as “disrupting interaction”.

From IntAct's records for PubMed 9422512
